Laboratory results published in patent US20250002610A1 (Genmab, published 2025).

T1: human DR4 (Death Receptor 4), cell surface expressed on human tumor cell lines (human, UniProt O00220 24-468)
T1 construct: also called TNFRSF10A; TRAIL-R1
T1 sequence: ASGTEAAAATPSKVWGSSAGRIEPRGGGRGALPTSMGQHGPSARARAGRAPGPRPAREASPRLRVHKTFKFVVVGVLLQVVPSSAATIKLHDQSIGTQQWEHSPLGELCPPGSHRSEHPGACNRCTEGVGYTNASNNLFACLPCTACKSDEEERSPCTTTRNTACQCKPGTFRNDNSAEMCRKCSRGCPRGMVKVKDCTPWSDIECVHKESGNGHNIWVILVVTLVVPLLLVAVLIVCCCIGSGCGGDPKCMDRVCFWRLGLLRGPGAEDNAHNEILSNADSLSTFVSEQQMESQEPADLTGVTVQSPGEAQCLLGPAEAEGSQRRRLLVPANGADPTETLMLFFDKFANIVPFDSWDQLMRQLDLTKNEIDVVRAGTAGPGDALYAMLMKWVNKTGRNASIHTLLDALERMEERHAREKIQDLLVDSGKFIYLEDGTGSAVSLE

T2: dog FAPα on Expi293F cells (dog (Canis familiaris), UniProt A5D7B7 1-760 (bovine entry))
T2 chain: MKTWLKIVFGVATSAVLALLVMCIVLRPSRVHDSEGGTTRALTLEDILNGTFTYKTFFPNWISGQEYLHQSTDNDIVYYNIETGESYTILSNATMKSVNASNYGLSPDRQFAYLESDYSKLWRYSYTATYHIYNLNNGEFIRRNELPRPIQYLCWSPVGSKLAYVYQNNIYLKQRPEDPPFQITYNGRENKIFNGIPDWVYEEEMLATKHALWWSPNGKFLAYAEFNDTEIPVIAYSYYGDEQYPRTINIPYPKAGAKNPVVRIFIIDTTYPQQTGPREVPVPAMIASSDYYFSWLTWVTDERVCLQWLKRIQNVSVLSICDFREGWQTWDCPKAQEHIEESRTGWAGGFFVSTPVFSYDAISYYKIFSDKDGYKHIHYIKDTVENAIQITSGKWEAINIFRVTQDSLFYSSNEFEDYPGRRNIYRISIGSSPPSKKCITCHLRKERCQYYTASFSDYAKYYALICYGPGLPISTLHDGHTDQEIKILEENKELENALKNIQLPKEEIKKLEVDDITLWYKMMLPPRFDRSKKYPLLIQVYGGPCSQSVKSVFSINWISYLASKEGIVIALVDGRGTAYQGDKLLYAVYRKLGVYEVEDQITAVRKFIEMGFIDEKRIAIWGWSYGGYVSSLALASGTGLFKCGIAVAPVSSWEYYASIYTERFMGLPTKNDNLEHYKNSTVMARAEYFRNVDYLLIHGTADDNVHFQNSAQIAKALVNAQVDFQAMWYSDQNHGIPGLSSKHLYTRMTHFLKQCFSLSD


Key:
[1] = molecular target: T1, human DR4 (Death Receptor 4), cell …; experiment: flow cytometry, MDA-MB-231 cells, N = 2
[2] = molecular target: T1, human DR4 (Death Receptor 4), cell …; experiment: flow cytometry, HCT-116 cells, n = 3
[3] = molecular target: T2, dog FAPα on Expi293F cells; experiment: flow cytometry on Expi293F cells transiently expressing dog FAPα, gMFI PE
Procedure: Binding of BisG1-FAPα-FERL/DR4-FERR, BisG1-FAPα-FEAL/b12-FEAR and IgG1-FAPα-FERL to FAPα of species commonly used for nonclinical toxicology studies was assessed by flow cytometry using Expi293F cells transiently expressing FAPα from different animal species. IgG1-b12 was included as negative control.
Expi293F cells expressing recombinant FAPα from various species (human, cynomolgus monkey, dog, pig, rat or mouse) were seeded (20,000 cells/well) in 96-Well round bottom plates (Greiner Bio-one, Cat #650101). Antibody dilutions were prepared using FACS buffer, consisting of PBS (Capricorn Scientific, Cat #PBS-10XA, diluted to 1×PBS in distilled water)+1% BSA (Roche, Cat #10735086001)+0.02% Sodium Azide (Bio-World, Cat #41920044-3). Plates were centrifuged, supernatant was removed, and cells were resuspended in 100 μL of antibody dilutions (concentration range 30-0.00017 μg/mL with three-fold serial dilutions using FACS buffer) of BisG1-FAPα-FERL/DR4-FERR, BisG1-FAPα-FEAL/b12-FEAR, IgG1-FAPα-FERL and IgG1-b12 and incubated for 30 min at 4° C. […] After 30 min incubation at 4° C., cells were washed with FACS buffer and resuspended in FACS buffer supplemented with TO-PRO-3 Iodide viability marker (Invitrogen, Cat #T3605, diluted 1:4,000). Antibody binding to viable cells (gMFI of PE on TO-PRO-3 negative cells) was analyzed by flow cytometry on a FACS Celesta and FACS_Diva software (first two experiments) or iQue® 3 and FlowJo software (last experiment). gMFI was determined and visualized using GraphPad Prism. Binding curves were analyzed using nonlinear regression analysis. The concentration (pg/mL) at which 50% of the maximal effect was observed (EC₅₀) was derived from the fitted curves.

| Binder | EC50 [1] | EC50 [2] | binding result [3] | Max MFI (at 90 µg/mL) [1] |
| --- | --- | --- | --- | --- |
| IgG1-DR4-FERR (antibody, V domains shown, Bivalent monoclonal IgG1 lambda) VH: QVQLQESGPGLVKPSGTLSLTCAVSGGSISSYSWWSWIRQPPGKGLEWIGELYHSGSTNYNPSLKSRVTISVDKSKNQFSLKLRSVTAADTAVYYCVRGVATIDYWGQGTLVTVSS VL: QSALTQPPSASGSPGQSVTISCTGTSSDVGGYNFVSWYQQDPGKAPKLLIYEVTKRPSGVPDRFSGSKSGNTASLTVSGLQAEDEADYYCSSYAGSNNVMFGGGTKLTVLG | 0.26 mg/L | 0.11 mg/L |  |  |
| BisG1-FAPα-FEAL/b12-FEAR (bispecific antibody, human IgG1, kappa, Fab-arm exchange of IgG1-FAPα-FEAL and IgG1-b12-FEAR) heavy 1: EVQLLESGGGLVQPGGSPRLSCEASGFTFSSYALSWVRQAPGKGLEWVSAISGSGGGRYYADSVKGRFTISRDNSKNTLFLQMNSLRAEDTAVYYCAKEGYSSSGTYWDHWGQGTLVTVSSASTKGPSVFPLAPSSKSTSGGTAALGCLVKDYFPEPVTVSWNSGALTSGVHTFPAVLQSSGLYSLSSVVTVPSSSLGTQTYICNVNHKPSNTKVDKRVEPKSCDKTHTCPPCPAPEFEGGPSVFLFPPKPKDTLMISRTPEVTCVVVAVSHEDPEVKFNWYVDGVEVHNAKTKPREEQYNSTYRVVSVLTVLHQDWLNGKEYKCKVSNKALPAPIEKTISKAKGQPREPQVYTLPPSREEMTKNQVSLTCLVKGFYPSDIAVEWESNGQPENNYKTTPPVLDSDGSFLLYSKLTVDKSRWQQGNVFSCSVMHEALHNHYTQKSLSLSPG light 1: AIQMTQSPSSVSASVGDRVTITCRASQGVSSWLAWYQQKPGRAPKLLIYVASTLQSGVPSRFSGSGSGTDFTLTINSLQPEDFATYYCQQANSFPPTFGQGTRLEMKRTVAAPSVFIFPPSDEQLKSGTASVVCLLNNFYPREAKVQWKVDNALQSGNSQESVTEQDSKDSTYSLSSTLTLSKADYEKHKVYACEVTHQGLSSPVTKSFNRGEC heavy 2: QVQLVQSGAEVKKPGASVKVSCQASGYRFSNFVIHWVRQAPGQRFEWMGWINPYNGNKEFSAKFQDRVTFTADTSANTAYMELRSLRSADTAVYYCARVGPYSWDDSPQDNYYMDVWGKGTTVIVSSASTKGPSVFPLAPSSKSTSGGTAALGCLVKDYFPEPVTVSWNSGALTSGVHTFPAVLQSSGLYSLSSVVTVPSSSLGTQTYICNVNHKPSNTKVDKRVEPKSCDKTHTCPPCPAPEFEGGPSVFLFPPKPKDTLMISRTPEVTCVVVAVSHEDPEVKFNWYVDGVEVHNAKTKPREEQYNSTYRVVSVLTVLHQDWLNGKEYKCKVSNKALPAPIEKTISKAKGQPREPQVYTLPPSREEMTKNQVSLTCLVKGFYPSDIAVEWESNGQPENNYKTTPPVLDSDGSFFLYSRLTVDKSRWQQGNVFSCSVMHEALHNHYTQKSLSLSPG light 2: EIVLTQSPGTLSLSPGERATFSCRSSHSIRSRRVAWYQHKPGQAPRLVIHGVSNRASGISDRFSGSGSGTDFTLTITRVEPEDFALYYCQVYGASSYTFGQGTKLERKRTVAAPSVFIFPPSDEQLKSGTASVVCLLNNFYPREAKVQWKVDNALQSGNSQESVTEQDSKDSTYSLSSTLTLSKADYEKHKVYACEVTHQGLSSPVTKSFNRGEC |  |  | binds |  |
| BisG1-b12-FERL/DR4-FERR (bispecific antibody, human IgG1, kappa, lambda, Fab-arm exchange of IgG1-b12-FERL and IgG1-DR4-FERR; also called bsIgG1-ctrl-FERLxDR4-FERR) heavy 1: QVQLVQSGAEVKKPGASVKVSCQASGYRFSNFVIHWVRQAPGQRFEWMGWINPYNGNKEFSAKFQDRVTFTADTSANTAYMELRSLRSADTAVYYCARVGPYSWDDSPQDNYYMDVWGKGTTVIVSSASTKGPSVFPLAPSSKSTSGGTAALGCLVKDYFPEPVTVSWNSGALTSGVHTFPAVLQSSGLYSLSSVVTVPSSSLGTQTYICNVNHKPSNTKVDKRVEPKSCDKTHTCPPCPAPEFERGPSVFLFPPKPKDTLMISRTPEVTCVVVDVSHEDPEVKFNWYVDGVEVHNAKTKPREEQYNSTYRVVSVLTVLHQDWLNGKEYKCKVSNKALPAPIEKTISKAKGQPREPQVYTLPPSREEMTKNQVSLTCLVKGFYPSDIAVEWESNGQPENNYKTTPPVLDSDGSFLLYSKLTVDKSRWQQGNVFSCSVMHEALHNHYTQKSLSLSPG light 1: EIVLTQSPGTLSLSPGERATFSCRSSHSIRSRRVAWYQHKPGQAPRLVIHGVSNRASGISDRFSGSGSGTDFTLTITRVEPEDFALYYCQVYGASSYTFGQGTKLERKRTVAAPSVFIFPPSDEQLKSGTASVVCLLNNFYPREAKVQWKVDNALQSGNSQESVTEQDSKDSTYSLSSTLTLSKADYEKHKVYACEVTHQGLSSPVTKSFNRGEC heavy 2: QVQLQESGPGLVKPSGTLSLTCAVSGGSISSYSWWSWIRQPPGKGLEWIGELYHSGSTNYNPSLKSRVTISVDKSKNQFSLKLRSVTAADTAVYYCVRGVATIDYWGQGTLVTVSSASTKGPSVFPLAPSSKSTSGGTAALGCLVKDYFPEPVTVSWNSGALTSGVHTFPAVLQSSGLYSLSSVVTVPSSSLGTQTYICNVNHKPSNTKVDKRVEPKSCDKTHTCPPCPAPEFERGPSVFLFPPKPKDTLMISRTPEVTCVVVDVSHEDPEVKFNWYVDGVEVHNAKTKPREEQYNSTYRVVSVLTVLHQDWLNGKEYKCKVSNKALPAPIEKTISKAKGQPREPQVYTLPPSREEMTKNQVSLTCLVKGFYPSDIAVEWESNGQPENNYKTTPPVLDSDGSFFLYSRLTVDKSRWQQGNVFSCSVMHEALHNHYTQKSLSLSPG light 2: QSALTQPPSASGSPGQSVTISCTGTSSDVGGYNFVSWYQQDPGKAPKLLIYEVTKRPSGVPDRFSGSKSGNTASLTVSGLQAEDEADYYCSSYAGSNNVMFGGGTKLTVLGQPKAAPSVTLFPPSSEELQANKATLVCLISDFYPGAVTVAWKADSSPVKAGVETTTPSKQSNNKYAASSYLSLTPEQWKSHRSYSCQVTHEGSTVEKTVAPTECS | 0.95 mg/L | 0.55 mg/L |  | 7840 MFI |
| IgG1-FAPα-FERL (antibody, Bivalent monoclonal IgG1 kappa) heavy: EVQLLESGGGLVQPGGSPRLSCEASGFTFSSYALSWVRQAPGKGLEWVSAISGSGGGRYYADSVKGRFTISRDNSKNTLFLQMNSLRAEDTAVYYCAKEGYSSSGTYWDHWGQGTLVTVSSASTKGPSVFPLAPSSKSTSGGTAALGCLVKDYFPEPVTVSWNSGALTSGVHTFPAVLQSSGLYSLSSVVTVPSSSLGTQTYICNVNHKPSNTKVDKRVEPKSCDKTHTCPPCPAPEFERGPSVFLFPPKPKDTLMISRTPEVTCVVVDVSHEDPEVKFNWYVDGVEVHNAKTKPREEQYNSTYRVVSVLTVLHQDWLNGKEYKCKVSNKALPAPIEKTISKAKGQPREPQVYTLPPSREEMTKNQVSLTCLVKGFYPSDIAVEWESNGQPENNYKTTPPVLDSDGSFLLYSKLTVDKSRWQQGNVFSCSVMHEALHNHYTQKSLSLSPG light: AIQMTQSPSSVSASVGDRVTITCRASQGVSSWLAWYQQKPGRAPKLLIYVASTLQSGVPSRFSGSGSGTDFTLTINSLQPEDFATYYCQQANSFPPTFGQGTRLEMKRTVAAPSVFIFPPSDEQLKSGTASVVCLLNNFYPREAKVQWKVDNALQSGNSQESVTEQDSKDSTYSLSSTLTLSKADYEKHKVYACEVTHQGLSSPVTKSFNRGEC |  |  | binds |  |
